# Data published in patent publication US20200095333A1 (published 2020).
# Where a chain is given by its changes, count along the chain named. Numbers in names are those of the source.
# T1: sCD32B (soluble CD32B, FcgammaRIIB) (human, UniProt P31994 43-217)
# T1 construct: extracellular domain; also called soluble CD32B ectodomain
# T1 sequence: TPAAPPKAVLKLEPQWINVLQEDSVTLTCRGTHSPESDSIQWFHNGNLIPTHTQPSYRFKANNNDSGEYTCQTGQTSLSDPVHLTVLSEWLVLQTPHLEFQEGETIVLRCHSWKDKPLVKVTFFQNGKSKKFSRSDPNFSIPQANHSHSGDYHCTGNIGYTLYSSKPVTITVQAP
# T2: mCD32B (murine CD32B) (murine, UniProt P08101 30-210)
# T2 sequence: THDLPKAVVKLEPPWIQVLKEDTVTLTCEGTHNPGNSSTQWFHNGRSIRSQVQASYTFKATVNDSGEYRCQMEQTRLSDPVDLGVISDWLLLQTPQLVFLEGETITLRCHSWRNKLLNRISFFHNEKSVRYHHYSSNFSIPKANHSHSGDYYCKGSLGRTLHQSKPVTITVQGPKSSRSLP
# B1: product of constructs 1 and 9 (pMGX0669+pMGX0719) (bispecific antibody)
# chain 1: EIVLTQSPDFQSVTPKEKVTFTCRTSQSIGTNIHWYQQKPDQSPKLLIKEVSESISGVPSRFSGSGSGTDFTLTINSLEAEDAATYYCQQSNTWPFTFGGGTKVEIKGGGSGGGGQVTLRESGPALVKPTQTLTLTCTFSGFSLSTSGMGVGWIRQPPGKALEWLAHIWWDDDKRYNPALKSRLTISKDTSKNQVVLTMTNMDPVDTATYYCAQINPAWFAYWGQGTLVTVSSLGGC
# chain 2: not shown
# notes: hinge-Fc at the N-terminus of the heavier chain; also called constructs 9+1; copies: 2 + 2
# B2: product of constructs 1 and 10 (pMGX0669+pMGX0718) (bispecific antibody)
# chain 1: B1 chain 1
# chain 2: not shown
# notes: Fc at the N-terminus of the heavier chain; also called constructs 10+1; copies: 2 + 2
# B3: product of constructs 11 and 12 (bispecific antibody)
# chain 1: not shown
# chain 2: DIVMTQSPDSLAVSLGERATINCKASQSVDFDGDSFMNWYQQKPGQPPKLLIYTTSNLESGVPDRFSGSGSGTDFTLTISSLQAEDVAVYYCQQSNEDPYTFGQGTKLEIKGGGSGGGGQVQLVQSGAEVKKPGASVKVSCKASGYTFTNYWIHWVRQAPGQCLEWIGVIDPSDTYPNYNKKFKGRVTMTVVVSTSTAYMELRSLRSDDTAVYYCARNGDSDYYSGMDYWGQGTTVTVSSFNRGEC
# notes: C-terminal hinge-Fc; engineered cysteines G105C (2B6 VL) and G44C (2B6 VH); copies: 2 + 2
# B4: product of constructs 15 and 16 (pMGX0752+pMGX0753) (bispecific antibody)
# chain 1: EIVLTQSPDFQSVTPKEKVTFTCRTSQSIGTNIHWYQQKPDQSPKLLIKEVSESISGVPSRFSGSGSGTDFTLTINSLEAEDAATYYCQQSNTWPFTFGGGTKVEIKGGGSGGGGQVTLRESGPALVKPTQTLTLTCTFSGFSLSTSGMGVGWIRQPPGKALEWLAHIWWDDDKRYNPALKSRLTISKDTSKNQVVLTMTNMDPVDTATYYCAQINPAWFAYWGQGTLVTVSSFNRGEC
# chain 2: B3 chain 2 with C163G, F241V, N242E, R243P, G244K, E245S
# notes: Hu2B6VL-Hu3G8VH-FNRGEC and Hu3G8VL-Hu2B6VH-VEPKSC; also called construct 15/16 combination
# B5: Ig-like tetravalent DART (2.4G2-3G8-hKappa / 3G8-2.4G2-hG1) (bispecific antibody)
# chain 1: DVQMTQSPSNLAASPGESVSINCKASESISKYLAWYLQKPGKANKLLMYDGSTLQSGIPSRFSGSGSGTDFTLTIRSLEPEDFGLYYCQQHYEYPATFGSGTKLEIKGGGSGGGGQVTLKESGPGILQPSQTLSLTCSFSGFSLRTSGMGVGWIRQPSGKGLEWLAHIWWDDDKRYNPALKSRLTISKDTSSNQVFLKIASVDTADTATYYCAQINPAWFAYWGQGTLVTVSSLGGCGGGSRTVAAPSVFIFPPSDEQLKSGTASVVCLLNNFYPREAKVQWKVDNALQSGNSQESVTEQDSKDSTYSLSSTLTLSKADYEKHKVYACEVTHQGLSSPVTKSFNRGEC
# chain 2: not shown
# notes: also called Ig DART 1; Ig DART 2
# B6: product of co-expression of constructs 7 and 8 (pMGX0677+pMGX0678), tetrameric IgG-like diabody (bispecific antibody)
# chain 1: EIVLTQSPDFQSVTPKEKVTFTCRTSQSIGTNIHWYQQKPDQSPKLLIKEVSESISGVPSRFSGSGSGTDFTLTINSLEAEDAATYYCQQSNTWPFTFGGGTKVEIKGGGSGGGGQVTLRESGPALVKPTQTLTLTCTFSGFSLSTSGMGVGWIRQPPGKALEWLAHIWWDDDKRYNPALKSRLTISKDTSKNQVVLTMTNMDPVDTATYYCAQINPAWFAYWGQGTLVTVSSLGGCFNRGEC
# chain 2: not shown
# B7: h3G8 CMD (covalent monospecific diabody, construct 3) (other)
# chain: DIVMTQSPDSLAVSLGERATINCKASQSVDFDGDSFMNWYQQKPGQPPKLLIYTTSNLESGVPDRFSGSGSGTDFTLTISSLQAEDVAVYYCQQSNEDPYTFGQGTKLEIKGGGSGGGGQVTLRESGPALVKPTQTLTLTCTFSGFSLSTSGMGVGWIRQPPGKALEWLAHIWWDDDKRYNPALKSRLTISKDTSKNQVVLTMTNMDPVDTATYYCAQINPAWFAYWGQGTLVTVSSLGGC
# modifications: covalent homodimer; interchain disulfide through the C-terminal LGGC cysteines
# notes: covalent homodimer diabody; also called h3G8 diabody
# B8: hCD16-hCD32B ABD-DART (bispecific antibody)
# chain 1: DIVMTQSPDSLAVSLGERATINCKASQSVDFDGDSFMNWYQQKPGQPPKLLIYTTSNLESGVPDRFSGSGSGTDFTLTISSLQAEDVAVYYCQQSNEDPYTFGQGTKLEIKGGGSGGGGQVQLVQSGAEVKKPGASVKVSCKASGYTFTNYWIHWVRQAPGQGLEWIGVIDPSDTYPNYNKKFKGRVTMTVVVSTSTAYMELRSLRSDDTAVYYCARNGDSDYYSGMDYWGQGTTVTVSSGGCGGGKVAALKEKVAALKEKVAALKEKVAALKEGGGNS
# chain 2: EIVLTQSPDFQSVTPKEKVTFTCRTSQSIGTNIHWYQQKPDQSPKLLIKEVSESISGVPSRFSGSGSGTDFTLTINSLEAEDAATYYCQQSNTWPFTFGGGTKVEIKGGGSGGGGQVTLRESGPALVKPTQTLTLTCTFSGFSLSTSGMGVGWIRQPPGKALEWLAHIWWDDDKRYNPALKSRLTISKDTSKNQVVLTMTNMDPVDTATYYCAQINPAWFAYWGQGTLVTVSSGGCGGGEVAALEKEVAALEKEVAALEKEVAALEKGGGNSLAEAKVLANRELDKYGVSDYYKNLINNAKTVEGVKALIDEILAALP
# notes: also called hCD16-hCD32B EK ABD-DART; DART ABD fusion
# How the values were obtained:
# [1] = target: T3, sCD16A (soluble CD16A, FcgammaRIIIA) (human, UniProt P08637 17-208); experiment: sandwich ELISA, CD32B coat, HRP-CD16 probe
# T3 construct: extracellular domain; given only as soluble; used immobilised (SPR), coated, or biotin/HRP-labelled as probe (ELISA); also called CD16 antigen; sCD16A-Biotin
# T3 sequence (P08637 17-208): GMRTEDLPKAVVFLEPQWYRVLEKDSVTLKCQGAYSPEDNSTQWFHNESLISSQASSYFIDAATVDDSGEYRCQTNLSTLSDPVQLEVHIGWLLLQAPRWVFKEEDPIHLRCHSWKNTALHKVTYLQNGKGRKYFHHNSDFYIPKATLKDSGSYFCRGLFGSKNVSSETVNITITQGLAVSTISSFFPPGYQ
# [2] = target: T1, sCD32B (soluble CD32B, FcgammaRIIB); experiment: sandwich ELISA, CD32B coat, HRP-CD16 probe
# [3] = target: T3, sCD16A (soluble CD16A, FcgammaRIIIA); experiment: sandwich ELISA, CD32B coat, CD16A probe
# [4] = target: T1, sCD32B (soluble CD32B, FcgammaRIIB); experiment: sandwich ELISA, CD32B coat, CD16A probe
# [5] = target: T4, human serum albumin (HSA) (human, UniProt P02768 25-609); experiment: HSA binding class (+ = 0.1-0.4)
# T4 construct: also called human albumin; HRP-human albumin
# [6] = target: T4, human serum albumin (HSA); experiment: deimmunized ABD ELISA (FIG. 57)
# [7] = target: T4, human serum albumin (HSA); experiment: HSA binding class (+++ = 0.7-1.0)
# [8] = target: T4, human serum albumin (HSA); experiment: albumin binding of ABD variants
# mCD32B (murine CD32B) = target: T2, mCD32B (murine CD32B); experiment: mCD32-hCD16A binding ELISA
# [9] = target: T3, sCD16A (soluble CD16A, FcgammaRIIIA); experiment: mCD32-hCD16A binding ELISA
# [10] = target: T3, sCD16A (soluble CD16A, FcgammaRIIIA); experiment: SPR (BIAcore), receptor immobilised, diabody 6.25-200 nM
# [11] = target: T4, human serum albumin (HSA); experiment: ELISA, HSA coat, biotinylated sCD32B detection
# [12] = target: T3, sCD16A (soluble CD16A, FcgammaRIIIA); experiment: dual ELISA, CD16 coat, biotinylated sCD32B detection
# [13] = target: T1, sCD32B (soluble CD32B, FcgammaRIIB); experiment: as above
# soluble CD16A(158F) = target: T5, soluble CD16A(158F) (human, UniProt P08637 17-208); experiment: SPR, HSA immobilised, ABD-DART then 200 nM CD32B and 200 nM CD16A(F158)
# T5 construct: extracellular domain; also called CD16A(F158); sCD16A
# T5 sequence (P08637 17-208): as above
binder,measurement,setting,value
B1,binding result,[1],binds
same,binding result,[2],binds
B2,binding result,[1],binds
same,binding result,[2],binds
B3,binding result,[1],binds
same,binding result,[2],binds
B4,binding result,[3],binds
same,binding result,[4],binds
"LAEAKVLANRELDKYGVSDYYKNLADNAKTAEGVKALIDEILAALP (other, also called 65A/66D/71A) [ABD I65A/N66D/V71A]",HSA binding,[5],0.1 to 0.4
"LAEAKVLANRELDKYGVSDYYKNLISNAKSVEGVKALIAEILAALP (other) [variant ABD N66S, T70S and D79A]",binding result,[6],binds
LAEAKVLANRELDKYGVSDYYKNLIDNAKTVEGVKALIDEILAALP (other) [ABD N66D],HSA binding,[7],0.7 to 1
LAEAKVLANRELDKYGVSDYYKNLIENAKTVEGVKALIDEILAALP (other) [ABD N66E],HSA binding,[7],0.7 to 1
"LAEAKVLANRELDKYGVSDYYKNAIDNAKTAEGVKALIDEILAALP (other, also called 64A/66D/71A) [ABD L64A/N66D/V71A]",HSA binding,[5],0.1 to 0.4
"LAEAKVLANRELDKYGVSDYYKNGIDNAKTAEGVKALIDEILAALP (other, also called 64G/66D/71A) [ABD L64G/N66D/V71A]",HSA binding,[5],0.1 to 0.4
LAEAKVLANRELDKYGVSDYYKNLIDNAKSAEGVKALIDEILAALP (other) [ABD N66D/T70S/V71A (ABD (DSA))],binding result,[8],binds
"LAEAKVLANRELDKYGVSDYYKNAANNAKTVEGVKALIAEILAALP (other) [variant ABD L64A, I65A and D79A]",binding result,[6],binds
B5,binding result,mCD32B (murine CD32B),binds
same,binding result,[9],binds
B6,binding result,[1],binds
same,binding result,[2],binds
B7,Kd,[10],18 nM
B8,binding result,[11],binds
same,binding result,[12],binds
same,binding result,[13],binds
same,binding result,soluble CD16A(158F),binds
